Laboratory results published in paper PMC11327110 (2024).
Each block holds one binder with its values, some of them ahead of it.

Columns and labels:
[1] = target: T1, proteasome subunit α7 (PSMA3) (Homo sapiens (Human), UniProt P25788); test: cryo-EM structure of co-purified complex; contact seen only within the assembled multi-subunit intermediate (PAC2 C-terminus in α6-α7 pocket); pair not tested in isolation
T1 chain: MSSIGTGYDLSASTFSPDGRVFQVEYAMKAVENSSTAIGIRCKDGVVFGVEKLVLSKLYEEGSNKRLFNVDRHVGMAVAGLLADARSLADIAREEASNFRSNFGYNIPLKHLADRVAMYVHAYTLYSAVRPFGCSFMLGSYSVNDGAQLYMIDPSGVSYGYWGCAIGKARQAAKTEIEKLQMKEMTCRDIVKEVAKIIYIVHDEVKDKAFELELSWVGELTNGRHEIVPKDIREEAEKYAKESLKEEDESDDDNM

[2] = target: T2, proteasome subunit α5 (PSMA5) (Homo sapiens (Human), UniProt P28066); test: cryo-EM structure of co-purified complex; contact seen within the assembled multi-subunit intermediate (complete α-ring, POMP, β2); isolated pair only cited from earlier work
T2 chain: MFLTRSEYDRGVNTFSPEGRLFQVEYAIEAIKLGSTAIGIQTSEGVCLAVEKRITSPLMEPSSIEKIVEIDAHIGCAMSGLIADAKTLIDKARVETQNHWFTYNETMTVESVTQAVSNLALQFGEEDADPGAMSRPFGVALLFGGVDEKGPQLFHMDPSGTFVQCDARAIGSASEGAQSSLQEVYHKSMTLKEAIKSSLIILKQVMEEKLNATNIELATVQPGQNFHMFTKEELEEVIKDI

[3] = target: T3, proteasome subunit α4 (PSMA7) (Homo sapiens (Human), UniProt O14818); test: cryo-EM structure of co-purified complex; contact seen only within the assembled multi-subunit intermediate (complete α-ring, POMP, β2); pair not tested in isolation
T3 chain: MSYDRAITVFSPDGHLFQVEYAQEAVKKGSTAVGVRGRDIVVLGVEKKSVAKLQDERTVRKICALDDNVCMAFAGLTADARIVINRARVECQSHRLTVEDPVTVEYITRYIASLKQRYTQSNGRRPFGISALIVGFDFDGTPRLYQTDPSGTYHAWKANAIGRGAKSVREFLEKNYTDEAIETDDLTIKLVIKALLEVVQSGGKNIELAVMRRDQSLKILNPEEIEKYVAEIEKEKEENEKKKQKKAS

[4] = target: T4, proteasome subunit α2 (PSMA2) (Homo sapiens (Human), UniProt P25787); test: as above
T4 chain: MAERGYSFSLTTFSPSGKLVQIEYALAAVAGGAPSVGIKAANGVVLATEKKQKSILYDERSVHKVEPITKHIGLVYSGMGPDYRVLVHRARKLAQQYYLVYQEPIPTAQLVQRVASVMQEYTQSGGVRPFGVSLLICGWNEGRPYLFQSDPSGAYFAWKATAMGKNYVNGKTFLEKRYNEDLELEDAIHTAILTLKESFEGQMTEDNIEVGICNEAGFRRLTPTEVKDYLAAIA

[5] = target: proteasome subunit α6 (PSMA1) (Homo sapiens (Human), UniProt P25786); test: cryo-EM structure of co-purified complex; contact seen only within the assembled multi-subunit intermediate (HbYX motifs in α5-α6 and α6-α7 pockets); pair not tested in isolation
[6] = target: T5, proteasome subunit α3 (PSMA4) (Homo sapiens (Human), UniProt P25789); test: cryo-EM structure of co-purified complex; contact seen within the assembled multi-subunit intermediate; isolated pair only cited from earlier yeast two-hybrid
T5 chain: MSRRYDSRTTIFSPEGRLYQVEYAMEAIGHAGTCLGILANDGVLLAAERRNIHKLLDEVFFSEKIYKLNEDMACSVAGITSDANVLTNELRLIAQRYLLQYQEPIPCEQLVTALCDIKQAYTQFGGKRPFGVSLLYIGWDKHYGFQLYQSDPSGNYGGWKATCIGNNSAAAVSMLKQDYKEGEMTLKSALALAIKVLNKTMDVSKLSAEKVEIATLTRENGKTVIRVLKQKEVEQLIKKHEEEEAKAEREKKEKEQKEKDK

[7] = target: T5, proteasome subunit α3 (PSMA4); test: cryo-EM structure of co-purified complex; contact seen only within structure 1 (complete α-ring, PAC1/PAC2, POMP, β2); pair not tested in isolation

Chain of proteasome subunit α6 (PSMA1) (P25786 whole entry): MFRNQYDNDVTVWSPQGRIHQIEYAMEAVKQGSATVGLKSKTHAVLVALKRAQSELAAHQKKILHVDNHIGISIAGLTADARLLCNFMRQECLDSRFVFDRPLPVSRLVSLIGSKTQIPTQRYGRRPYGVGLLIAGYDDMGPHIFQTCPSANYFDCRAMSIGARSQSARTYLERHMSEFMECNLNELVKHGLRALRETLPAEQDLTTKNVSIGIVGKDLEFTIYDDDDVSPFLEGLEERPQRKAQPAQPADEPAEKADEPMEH

- binding result [1]: binds
- binding result [2]: binds
- binding result [3]: binds
- binding result [4]: binds
- binding result [5]: binds
B1: PAC1–PAC2 heterodimer (protein)
chain 1: MAATFFGEVVKAPCRAGTEDEEEEEEGRRETPEDREVRLQLARKREVRLLRRQTKTSLEVSLLEKYPCSKFIIAIGNNAVAFLSSFVMNSGVWEEVGCAKLWNEWCRTTDTTHLSSTEAFCVFYHLKSNPSVFLCQCSCYVAEDQQYQWLEKVFGSCPRKNMQITILTCRHVTDYKTSESTGSLPSPFLRALKTQNFKDSACCPLLEQPNIVHDLPAAVLSYCQVWKIPAILYLCYTDVMKLDLITVEAFKPILSTRSLKGLVKNIPQSTEILKKLMTTNEIQSNIYT
chain 2: MFVPCGESAPDLAGFTLLMPAVSVGNVGQLAMDLIISTLNMSKIGYFYTDCLVPMVGNNPYATTEGNSTELSINAEVYSLPSRKLVALQLRSIFIKYKSKPFCEKLLSWVKSSGCARVIVLSSSHSYQRNDLQLRSTPFRYLLTPSMQKSVQNKIKSLNWEEMEKSRCIPEIDDSEFCIRIPGGGITKTLYDESCSKEIQMAVLLKFVSEGDNIPDALGLVEYLNEWLQILKPLSDDPTVSASRWKIPSSWRLLFGSGLPPALF

- binding result [6]: binds
B2: proteasome maturation protein (POMP) (protein)
chain: MNARGLGSELKDSIPVTELSASGPFESHDLLRKGFSCVKNELLPSHPLELSEKNFQLNQDKMNFSTLRNIQGLFAPLKLQMEFKAVQQVQRLPFLSSSNLSLDVLRGNDETIGFEDILNDPSQSEVMGEPHLMVEYKLGLL

- binding result [7]: binds
B3: PAC3–PAC4 heterodimer (protein)
chain 1: MEDTPLVISKQKTEVVCGVPTQVVCTAFSSHILVVVTQFGKMGTLVSLEPSSVASDVSKPVLTTKVLLGQDEPLIHVFAKNLVAFVSQEAGNRAVLLAVAVKDKSMEGLKALREVIRVCQVW
chain 2: MEGLVVAAGGDVSLHNFSARLWEQLVHFHVMRLTDSLFLWVGATPHLRNLAVAMCSRYDSIPVSTSLLGDTSDTTSTGLAQRLARKTNKQVFVSYNLQNTDSNFALLVENRIKEEMEAFPEKF
